Assay results: PMC314469, “Protein Interaction Networks by Proteome Peptide Scanning” (PLoS Biology, 2004)

What was measured:
[1] = target: T1, amphyphisin SH3 (AMPH_HUMAN), P49418; experiment: SPOT array
T1 chain: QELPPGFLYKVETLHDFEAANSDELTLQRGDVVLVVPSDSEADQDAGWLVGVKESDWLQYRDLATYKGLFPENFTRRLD

[2] = target: endophilin SH3 (SH3G2_HUMAN), Q99962; experiment: SPOT array

Binder | normalised SPOT signal, Boehringer light units (BLU); mean over the file's lines of this peptide [1] | normalised SPOT signal, Boehringer light units (BLU); mean over the file's lines of this peptide [2]
GPSSPQKPPTPEET [P18887 443-457] | 43.4 | 57.4
GPYGPHRPPQPLPP [Q99687 39-53] | 54.3 | 212
GQSAPRRPSAGDGA [Q9P2C5 54-67] | 23.6 | 142
ALLEPRRPPHDYMP [Q99946 106-119] | 33 | 55.2
GQDKPVKPPTKKSE [P20810 625-639] | 48.2 | 232
GQKLPRRPQPGPGE [Q9H8D9 660-673] | 14.9 | 43
GQKQPKRPRSESSS [O00467 395-408] | 51.5 | 43.7
GQLQPSRPTRARGT [Q14163 165-178] | 4840 | 111
GQQLPPRPPQSSSV [O15027 229-243] | 66.4 | 486
GQRRLRRPLILGLG [O75761 132-145] | 42.9 | 93.3
GQVILRRPLDYEKN [Q9NPG4 302-315] | 19.8 | 20.9
GRAWLRRPHPRDVG [Q9H4N7 178-191] | 2.1 | 55.2
GRDFLQRPGRQPQA [O75016 262-275] | 211 | 135
GREAPGRPPRAVPK [Q9ULI4 1050-1063] | 2140 | 19300
ALLTPHRPGRALSF [Q9NZK9 120-133] | 5440 | 491
GRNDLKRPMQAPPG [Q9HD26 258-271] | 32.8 | 39.5
GRPRPRRPAQYPAR [Q9BTV6 2-15] | 73.1 | 649
